The data set has as its target RNAP-SigA holoenzyme (Mycobacterium tuberculosis, UniProt P9WGZ1;P9WGY9;P9WGY7;P9WGI1 1-347;1-1178;1-1316;1-528). In words: EMSA. The note with it: protein: recombinant; chain copies: 2;1;1;1; blunt.

Sequence of RNAP-SigA holoenzyme (P9WGZ1 whole entry, chain 1 of 4): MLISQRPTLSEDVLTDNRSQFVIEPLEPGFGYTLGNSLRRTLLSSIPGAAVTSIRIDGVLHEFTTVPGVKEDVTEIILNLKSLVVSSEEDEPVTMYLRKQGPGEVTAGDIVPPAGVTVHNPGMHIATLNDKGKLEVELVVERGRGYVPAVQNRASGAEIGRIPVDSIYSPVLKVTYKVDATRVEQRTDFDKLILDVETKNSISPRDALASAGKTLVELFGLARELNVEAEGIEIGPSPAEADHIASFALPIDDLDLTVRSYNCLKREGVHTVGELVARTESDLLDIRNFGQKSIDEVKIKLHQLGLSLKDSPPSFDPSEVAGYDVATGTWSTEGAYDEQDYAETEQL
Sequence of RNAP-SigA holoenzyme (P9WGY9 whole entry, chain 2 of 4): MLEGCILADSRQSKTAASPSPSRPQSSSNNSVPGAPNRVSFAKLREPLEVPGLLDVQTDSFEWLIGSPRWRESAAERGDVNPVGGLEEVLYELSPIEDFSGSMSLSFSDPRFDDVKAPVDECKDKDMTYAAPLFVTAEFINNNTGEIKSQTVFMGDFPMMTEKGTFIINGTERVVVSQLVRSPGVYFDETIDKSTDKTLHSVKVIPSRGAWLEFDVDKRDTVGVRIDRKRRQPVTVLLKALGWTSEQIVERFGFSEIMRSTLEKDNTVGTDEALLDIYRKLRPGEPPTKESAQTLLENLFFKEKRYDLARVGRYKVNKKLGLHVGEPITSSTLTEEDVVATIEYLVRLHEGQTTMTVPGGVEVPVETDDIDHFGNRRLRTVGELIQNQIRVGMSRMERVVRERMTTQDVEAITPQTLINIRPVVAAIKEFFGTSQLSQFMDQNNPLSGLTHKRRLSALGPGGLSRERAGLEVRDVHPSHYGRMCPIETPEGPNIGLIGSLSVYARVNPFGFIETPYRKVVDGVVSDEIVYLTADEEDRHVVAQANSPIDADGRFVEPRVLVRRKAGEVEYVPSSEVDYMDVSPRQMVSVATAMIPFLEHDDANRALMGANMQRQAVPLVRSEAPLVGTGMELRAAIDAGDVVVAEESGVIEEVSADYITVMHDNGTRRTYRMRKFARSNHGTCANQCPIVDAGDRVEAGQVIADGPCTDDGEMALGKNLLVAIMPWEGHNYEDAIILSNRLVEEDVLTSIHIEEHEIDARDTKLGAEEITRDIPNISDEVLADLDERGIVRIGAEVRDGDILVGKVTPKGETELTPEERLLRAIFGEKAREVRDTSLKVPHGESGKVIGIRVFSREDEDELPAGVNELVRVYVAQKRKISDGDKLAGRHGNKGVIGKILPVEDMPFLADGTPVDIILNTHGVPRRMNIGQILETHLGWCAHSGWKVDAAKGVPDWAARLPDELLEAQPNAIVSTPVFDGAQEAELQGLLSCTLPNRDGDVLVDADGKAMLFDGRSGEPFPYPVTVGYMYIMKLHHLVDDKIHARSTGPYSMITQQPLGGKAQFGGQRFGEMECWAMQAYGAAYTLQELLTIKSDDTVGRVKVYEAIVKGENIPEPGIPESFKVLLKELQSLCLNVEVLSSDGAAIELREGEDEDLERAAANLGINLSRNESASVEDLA
Sequence of RNAP-SigA holoenzyme (P9WGY7 whole entry, chain 3 of 4): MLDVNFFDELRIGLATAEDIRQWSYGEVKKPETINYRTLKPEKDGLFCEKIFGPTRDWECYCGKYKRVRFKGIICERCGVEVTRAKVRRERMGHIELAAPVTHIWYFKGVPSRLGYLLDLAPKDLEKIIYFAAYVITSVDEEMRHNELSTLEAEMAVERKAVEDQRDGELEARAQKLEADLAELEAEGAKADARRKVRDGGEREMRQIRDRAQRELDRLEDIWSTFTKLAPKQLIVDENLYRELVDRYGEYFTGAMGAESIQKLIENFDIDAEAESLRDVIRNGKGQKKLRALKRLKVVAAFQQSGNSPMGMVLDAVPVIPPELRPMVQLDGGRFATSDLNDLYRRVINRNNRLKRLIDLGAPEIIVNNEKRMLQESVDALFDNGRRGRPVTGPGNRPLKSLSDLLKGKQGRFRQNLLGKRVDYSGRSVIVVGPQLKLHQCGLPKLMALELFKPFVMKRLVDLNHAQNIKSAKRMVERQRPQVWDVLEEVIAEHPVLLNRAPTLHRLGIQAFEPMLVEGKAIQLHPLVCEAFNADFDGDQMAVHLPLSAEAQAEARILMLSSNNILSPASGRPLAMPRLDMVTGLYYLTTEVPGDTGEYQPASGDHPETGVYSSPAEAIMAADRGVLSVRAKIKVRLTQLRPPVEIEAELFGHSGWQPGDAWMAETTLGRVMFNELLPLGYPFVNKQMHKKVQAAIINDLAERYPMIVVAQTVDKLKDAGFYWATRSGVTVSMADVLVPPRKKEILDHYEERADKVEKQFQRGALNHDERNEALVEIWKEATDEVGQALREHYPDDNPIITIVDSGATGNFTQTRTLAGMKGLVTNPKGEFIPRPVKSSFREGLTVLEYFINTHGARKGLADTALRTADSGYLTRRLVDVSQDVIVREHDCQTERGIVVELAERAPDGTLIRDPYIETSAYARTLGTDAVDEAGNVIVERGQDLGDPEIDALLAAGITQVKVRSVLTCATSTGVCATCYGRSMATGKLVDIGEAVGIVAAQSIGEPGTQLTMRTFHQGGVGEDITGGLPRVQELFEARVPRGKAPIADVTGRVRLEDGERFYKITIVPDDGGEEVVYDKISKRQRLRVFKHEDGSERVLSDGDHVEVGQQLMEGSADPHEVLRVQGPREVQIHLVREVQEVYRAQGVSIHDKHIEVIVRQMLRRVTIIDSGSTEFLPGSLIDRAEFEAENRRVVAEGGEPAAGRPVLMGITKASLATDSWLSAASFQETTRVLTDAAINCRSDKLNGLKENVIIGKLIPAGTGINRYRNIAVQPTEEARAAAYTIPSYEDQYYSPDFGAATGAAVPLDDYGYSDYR
Sequence of RNAP-SigA holoenzyme (P9WGI1 whole entry, chain 4 of 4): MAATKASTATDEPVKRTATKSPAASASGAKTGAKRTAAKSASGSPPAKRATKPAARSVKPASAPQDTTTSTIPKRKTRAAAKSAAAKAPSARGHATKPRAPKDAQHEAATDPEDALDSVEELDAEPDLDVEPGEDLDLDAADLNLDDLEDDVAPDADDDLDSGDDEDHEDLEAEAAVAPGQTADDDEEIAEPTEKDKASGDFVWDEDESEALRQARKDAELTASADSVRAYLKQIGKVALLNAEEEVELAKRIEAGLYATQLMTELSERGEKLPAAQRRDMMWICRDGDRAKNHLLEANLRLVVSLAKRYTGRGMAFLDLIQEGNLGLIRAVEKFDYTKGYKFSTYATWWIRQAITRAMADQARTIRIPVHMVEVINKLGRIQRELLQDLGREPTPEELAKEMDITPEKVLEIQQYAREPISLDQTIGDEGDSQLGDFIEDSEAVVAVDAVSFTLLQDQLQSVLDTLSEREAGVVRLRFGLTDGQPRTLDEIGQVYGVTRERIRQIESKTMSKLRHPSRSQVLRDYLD

B1: rrnAP3/ADPr (non-template strand modified) (dsDNA)
DNA 1: CTATGGATGACCGAACCTGGTCTTGACTCCATTGCCGGATTTGTATTAGACTGGCAGGGTCGCCCCGAAGCGGGCGGAAACAAGCAAGCGTGTTGTTTGAGAACTC
DNA 2: GAGTTCTCAAACAACACGCTTGCTTGTTTCCGCCCGCTTCGGGGCGACCCTGCCAGTCTAATACAAATCCGGCAATGGAGTCAAGACCAGGTTCGGTCATCCATAG
modifications: ADP-ribosyl-thymidine on strand 1 (non-template; DarT; positions inferred near -10 in Fig 3A)
As to B1, the binding result is recorded as “binds”.
